From the supplement of paper PMC12764529
± gives the half width of the 95% confidence interval.

Experiments:
[1] = folding stability dG unfold from chymotrypsin proteolysis; higher = more stable
Procedure, shortened: (§1)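 Digests were run with trypsin and chymotrypsin at 11 concentrations in threefold dilutions, plus a no-protease condition, on designed mini-proteins in a PA-tagged cDNA display construct. The mini-proteins were under 80 residues, had no cysteine, and were kept only when AlphaFold2 dimer inter-PAE was above 15. After sequencing, Bayesian fitting of the counts gave K50, from which unfolding free energy was derived against a sequence-predicted unfolded-state K50 and a shared folded-state K50, per protease or combined.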

[2] = folding stability dG unfold (combined trypsin and chymotrypsin); higher = more stable
Procedure, shortened: as §1

[3] = folding stability dG unfold from trypsin proteolysis; higher = more stable
Procedure, shortened: as §1

| Sequence | folding stability dG unfold [1] [kJ/mol] | folding stability dG unfold [2] [kJ/mol] | folding stability dG unfold [3] [kJ/mol] |
| --- | --- | --- | --- |
| SAGGPMPPGQKRTVTIDLEYNPENGGYRVRAYSPGGKPIEEFPFPRDNLEEFAEEFANKGVDYVEIEPSAGG [r13_765_TrROS] | 2.21 ± 0.753 | 1.36 ± 0.669 | -0.908 ± 0.795 |
| SAGGPNFIVKIRIPMRKYERENDPGGKPKWEPVEPQRVEITIIFKGPPEQAKQIREELENHGLEVEPISAGG [r13_452_TrROS] | 10.2 ± 0.41 | 8.57 ± 0.753 | 6.91 ± 0.322 |
| SAGGPNIELEFETYRDPDGMLVIKFHIRIKFGNKPVYIFVEGVIPPDGEAQIEDAYIFDADNGEWIPISAGG [r13_932_TrROS] | 19.2 ± 0.628 | 17.8 ± 1.21 | 12.2 ± 1.05 |
| SAGGPPNGMVPIKVPIKIRFPNGHEFKIDEAYVMPNGMVMIEMTHTDPDDKKEKFPFMIPPDNLEIVSAGGS [r16_498_TrROS] | 6.64 ± 0.402 | 7.77 ± 0.795 | 10.1 ± 0.628 |
| SAGGPPNYRIKIEYYPPNGMITVELPFDSPDELLDEIRELPGLPVEPDNDGTIIIMFPNHMIKIDIWKSAGG [r13_143_TrROS] | 11.4 ± 0.234 | 10.5 ± 0.46 | 9.12 ± 0.28 |
| SAGGPPPKWVKIDIFIFIYNPDNGRPIFIRITSIEIRLDENNELDVEIEFEVFDPNGKPVKYTMTFKSAGGS [r16_200_TrROS] | 20.1 ± 0.46 | 18.6 ± 1 | 15.9 ± 0.502 |
| SAGGPSHPLGPVALTLDPAASTLTVTLGDEVLTLPVPPGVTATATSYPDSVTVTLTFPDGTVVTVTLPLSAG [r5_21_JUSTAS] | 13.3 ± 0.142 | 12.1 ± 0.234 | 9.13 ± 0.264 |
| SAGGPTAPAGGPLLAPVPVVVPVPVTLTFPNLTPEQAEALAEYFRSLGAEVSYDSATGTLTVRDYRTSAGGS [r16_765_TrMRF] | 16.29 ± 0.0586 | 15.01 ± 0.138 | 9.54 ± 0.255 |
| SAGGPTLKVKIYLPEEGKVIEFTFEAKKDEAEKIAKELEKLFPGYKLEGVKIFETPDSIELLAVASPESAGG [r13_196_TrMRF] | 15.3 ± 0.314 | 14.7 ± 0.289 | 13.7 ± 0.46 |
| SAGGPTVVLRVRDADGNLVTVTFDEETKRITVTVVRDGKTRTLTVDMTVDEAIARLRDLFPVEVELVPSAGG [r13_141_TrROS_Hall] | 12.76 ± 0.0586 | 11.8 ± 0.172 | 10.1 ± 0.213 |
| SAGGPVFLGFEEALEFIEKAFENGEDVVVVARLPDGGLVVLEASGPDLDLRVVAVIPLPPPEEDPEKYSAGG [r13_839_TrMRF] | 1.12 ± 0.586 | 4.3 ± 0.381 | 6.28 ± 0.138 |
| SAGGPVIEVEKEYIPETGLVKVKVRDPSSDRELEIIAPSDLVDKIEKALENAPGTNSEAAVREALRDSAGGS [r8_484_TrMRF] | 3.85 ± 0.134 | 1.68 ± 0.628 | -3.91 ± 1.76 |
| SAGGPVIEVESLEELKKALELLKEGKEVVIRVRVRRTETLPDGRKRVEEREVVYRATVEDGKLTIEPLSAGG [r13_835_TrROS_Hall] | 16.4 ± 0.544 | 14.9 ± 0.502 | 12.3 ± 0.385 |
| SAGGPVLVLVEVEAGFDGRPRLRRLVLPVELRPDGTVDLDAVRRAVEELLPPDWRILRIEVVPPDAPFSAGG [r13_504_TrMRF] | 6.11 ± 0.188 | 6.6 ± 0.197 | 6.596 ± 0.046 |
| SAGGPVVEKIRELLKELGYEVEVTDVKEDYVEIKVKLPDKEITLPDGSKIERLENGELRIWIPKEDLSAGGS [r8_297_TrROS_Hall] | 14.2 ± 0.368 | 13.6 ± 0.347 | 12.5 ± 0.255 |
| SAGGRGEGTMNDPEGGRVYKSEYDPGDGQAEIEPKPVPPVPPIDAEELAEELEQKNGLPNDDVEDMLGSAGG [r13_824_TrROS] | -0.872 ± 1.84 | -1.29 ± 1.13 | -1.4 ± 0.351 |
| SAGGRIKDIEPIPPNDPPGQKLTIKFPDGGPIEIPMEKEPDENGPYYYKFKLQVNNGEIEVMFRIPNSAGGS [r8_360_TrROS] | 22.9 ± 0.669 | 21.7 ± 1.34 | 15.6 ± 1.05 |
| SAGGRKAKVTVTLPDGTVVELELEFKTEEEFEKAVKEKLEELFGKSIEEVPFVEKKVTVYDPEKGSKSESAG [r5_482_JUSTAS] | 9.14 ± 0.502 | 8.55 ± 1.3 | 4.74 ± 0.544 |
